According to patent US20230374140A1 (Memorial Sloan Kettering, published 2023):

B1: TCR mimic antibody clone 11 (mIgG1 format) (antibody, V domains shown)
VH: QVQLVQSGAEVRKPGASVKVSCKASGYSFTSNGITWVRQAPGQGLEWMGWISGYNANTRYAQEFQARVTMTTDTSASTAYMELRSLRSDDTAVYYCARHAYWGGDSDYWGQGTLVTVSS
VL: NFMLTQPHSVSESPGKTVTISCTRSSGSIASNYVQWYQQRPGSAPTTVIYEDNQRPSGVPDRFSGSIDSSSNSASLTISGLKTEDEADYYCQSYDSSNVVFGGGTKLTVLG
notes: conjugated to PE for flow cytometry
B2: Clone 11 scFv phage clone (Clone 11 scFv) (scFv)
scFv: NFMLTQPHSVSESPGKTVTISCTRSSGSIASNYVQWYQQRPGSAPTTVIYEDNQRPSGVPDRFSGSIDSSSNSASLTISGLKTEDEADYYCQSYDSSNVVFGGGTKLTVLGSRGGGGSGGGGSGGGGSLEMAQVQLVQSGAEVRKPGASVKVSCKASGYSFTSNGITWVRQAPGQGLEWMGWISGYNANTRYAQEFQARVTMTTDTSASTAYMELRSLRSDDTAVYYCARHAYWGGDSDYWGQGTLVTVSS
B3: NDC80 Peptide A ALNEQIARL (synthetic peptide) (peptide)
peptide: ALNEQIARL
notes: Free peptide pulsed on T2 cells at 50 µg/ml in the HLA-A*02 stabilization assay; also called unmodified peptide; wild-type peptide
B4: Clone 10 scFv phage clone (scFv, V domains shown)
VH: QVQLQESGPGLVKPPGTLSLTCAVSGGSISSSNWWSWVRQPPGKGLEWIGEIYHSGSTNYNPSLNSRVIISDDTSKNQFSLTLTSVTAADTAVYYCARYYNSYYDSWGQGTLVTVSS
VL: QSVLTQPPSVSAAPGQKVTISCSGSSSNIGSNYVSWYQQLPGTAPKLLIYDNNKRPSGIPDRFSGSKSGTSATLGITGLQTGDEADYYCGTWDSSLSAYVFGTGTKVTVLG
B5: Clone 19 scFv phage clone (Clone 19 scFv) (scFv)
scFv: NFMLTQPHSVSESPGKTVTISCVRSSGSVASEFVQWYQQRPGHAPTLVIYNDFQRPSGVPDRFSGSIDKSSNSASLTISGLKAEDEADYYCQSYDQSSSIVFGGGTKLTVLGSRGGGGSGGGGSGGGGSLEMAEVQLVQSGAEVKKPGESLKISCKGSGYSFTTYWIGWVRQMPGKGLEWMGIIYPGDSDTTYSPSFQGQVTISADKSLSIAYLQWSSLKASDTAMYYCARYGGQYFWSDSFDSWGQGTLVTVSS
B6: Clone 1 scFv phage clone (Clone 01 scFv) (scFv)
scFv: DIQLTQSPSSLSASVGDRVTITCRASQGIRNDLGWYQQKPGKAPKLMIYAASSLQSGVPSRFSGSGSGTDFTLTISSLQPEDFATYYCLQDYDYPLTFGGGTKLEIKRSRGGGGSGGGGSGGGGSLEMAEVQLVQSGAEVKKPGESLKISCEASGYSFSSNWIAWVRQRPGKGLEWMGIIYPGDSDTRYSPSFQGQVTMSADMSISTAYLQWSSLKASDTAMYYCARFAGPGMWSYGFDYWGQGTLVTVSS
notes: also called phage clone 1
B7: Clone 18 scFv phage clone (Clone 18 scFv) (scFv)
scFv: QSVLTQPPSVSVAPGQKVTISCSGSSSNIGNNYVSWYQQLPGTAPKLLIYDNNKRPSGIPDRFSGSKSGTSATLGITGLQTGDEADYYCQSYDVYNMTSVFGGGTKLTVLGSRGGGGSGGGGSGGGGSLEMAQMQLVQSGAEVKKPGSSVKVSCKASGGTFSSYAISWVRQAPGQGLEWMGGIIPIFGTANYAQKFQGRVTITADESTSTAYMELSSLRSDDTAVYYCARGFSSWPGIDQWGQGTLVTVSS
B8: Clone 14 scFv phage clone (Clone 14 scFv) (scFv)
scFv: QSVLTQPPSVSAAPGQRVTISCSGSTSNIGSNYVSWYQQFPGTAPKLLIYDSDKRISGIPDRFSGSKSGTSATLGITGLQTGDEADYYCGTWDSSLTVGVFGGGTKVTVLGSRGGGGSGGGGSGGGGSLEMAQLQLQESGPGLVKPSGTLSLTCAVSGGSISSSNWWSWVRQPPGKGLEWIGEIYHSGSTNYNPSLKSRVTISVDKSKNQFSLKLSSVTAADTAVYYCARYFGQKYDYWGQGTLVTVSS
B9: TCR mimic antibody clone 1 (mIgG1 clone 1 antibody) (antibody, V domains shown)
VH: EVQLVQSGAEVKKPGESLKISCEASGYSFSSNWIAWVRQRPGKGLEWMGIIYPGDSDTRYSPSFQGQVTMSADMSISTAYLQWSSLKASDTAMYYCARFAGPGMWSYGFDYWGQGTLVTVSS
VL: DIQLTQSPSSLSASVGDRVTITCRASQGIRNDLGWYQQKPGKAPKLMIYAASSLQSGVPSRFSGSGSGTDFTLTISSLQPEDFATYYCLQDYDYPLTFGGGTKLEIKR
notes: also called NDC80 clone 1 mAb; mouse version of NDC80 clone 1 mAb
B10: Clone 7 scFv phage clone (Clone 07 scFv) (scFv)
scFv: QSVVTQPPSVSGAPGQRITISCTGSSSNIGAGYDVHWYQQLPGTAPKLLIFGNVNRPSGVPDRFSGSKSGTSASLAITGLQAEDEADYYCQSYDSSLSGWVFGGGTKLTVLGSRGGGGSGGGGSGGGGSLEMAQVQLQQSGAEVKKPGATVKVSCKASGYTFTSYGISWVRQAPGQGLEWMGWISAYNGNTNYAQKLQGRVTMTTDTSTSTAYMELRSLRSDDTAVYYCARMSMSEYIDYWGQGTLVTVSS

Columns and labels:
[1] = target: T1, NDC80 Peptide A … / HLA-A*02:01 complex (human); experiment: flow cytometry, PE-conjugated antibody on pulsed T2 cells
T1 construct: whole, on cells; On peptide-pulsed T2 cells (HLA-A*02:01+); also called NDC80/HLA-A*02:01 complex; NDC80/MHC I
Method: Pulsed T2 cells were harvested, washed with FACS buffer (PBS, 2% FBS and 0.01% sodium azide) and incubated for 30 min, light-protected, on ice with 2 μg/ml of the labeled antibodies. After incubation, cells were washed again with FACS buffer and resuspended in FACS buffer supplemented with DAPI. For the experiments described in FIGS. 10A-10I, incubation with the TCR mimic antibodies was performed at 2, 10 and 50 μg/ml. Cells were analyzed on an LSRFortessa™ (BD) flow cytometer; the data were analyzed using FlowJo™ v9 software.

[2] = target: T2, NC3 peptide … / HLA-A*02:01 complex (human); experiment: FACS, scFv phage on T2 cells loaded with single peptide
T2 construct: whole, on cells; On pulsed T2 cells; also pulled down from BV173 lysate (HLA-A*02)

[3] = target: T3, NC4 peptide … / HLA-A*02:01 complex (human); experiment: as above
T3 construct: whole, on cells; On pulsed T2 cells

[4] = target: T4, NC2 peptide … / HLA-A*02:01 complex (human); experiment: as above
T4 construct: whole, on cells; On pulsed T2 cells; also presented on JMN cells (HLA-A*02)

[5] = target: T5, NC1 peptide … / HLA-A*02:01 complex (human); experiment: as above
T5 construct: whole, on cells; On pulsed T2 cells; also pulled down from BV173 lysate (HLA-A*02) and presented on JMN cells

[6] = target: T1, NDC80 Peptide A … / HLA-A*02:01 complex; experiment: FACS, scFv phage on peptide-loaded T2 cells
From the text: 34 human phage scFv libraries were used to pan against NDC80/HLA-A*02:01 complex. In order to avoid the conformational change of MHC I complex introduced by immobilizing the protein complex onto plastic surfaces, cell panning was used in place of conventional plate panning. In cell panning, the human scFv phage libraries were first mixed with T2 cells loaded with control peptides to remove scFv phage clones that bind to T2 cells alone or MHC alone. […] T2 is a TAP-deficient, HLA-A*02:01⁺ lymphoblast cell line that express low amounts of HLA-A*02 on the cell surface and can only present exogenous peptides. […] After extensive washing with PBS, peptide-loaded T2 cells with bound scFv antibody phage were spun down. […] The panning was performed for 3 rounds to enrich scFv phage clones that bound NDC80/HLA-A*02:01 specifically.

[7] = target: T6, HLA-A*02:01 on T2 cells (human); experiment: HLA-A*02 stabilization on pulsed T2 cells, BB7.2 staining, flow cytometry
T6 construct: whole, on cells; MHC class I molecule of TAP-deficient T2 cells, stabilized by exogenous peptide and detected with BB7.2; also called A*02 protein
Method: Flow Cytometry. T2 cells were pulsed overnight with 50 μg/ml of one of the indicated peptides. Pulsed T2 cells were then stained with either BB7.2-PE antibody specific for HLA-A*02 to ensure stabilization of T2 cells with the pulsed peptides or with the labeled TCR mimic antibodies for 30 min on ice as described herein. Cells were washed after incubation with FACS buffer, resuspended in FACS buffer supplemented with DAPI and analyzed using a BD Fortessa™ flow cytometer.
For alanine screening assays, alanine or glycine substituted peptides were purchased from Genemed Synthesis, Inc. (San Antonio, Texas, USA). Besides the unsubstituted sequence of [sequence] […] If in the original peptide sequence the amino acid present was an alanine, the amino acid was changed to glycine. All other amino acids were changed into alanines.

[8] = target: T7, NDC80 derived peptide … / HLA-A*02:01 complex (human); experiment: flow cytometry, antibody on pulsed T2 cells
T7 construct: whole, on cells; On pulsed T2 cells

[9] = target: T8, NDC80 derived peptide … / HLA-A*02:01 complex (human); experiment: flow cytometry, antibody on pulsed T2 cells; remark: listed apart in the source
T8 construct: whole, on cells; On pulsed T2 cells

[10] = target: T2, NC3 peptide … / HLA-A*02:01 complex; experiment: immunopurification from BV173 cell lysate and LC-MS/MS, relative quantitation
Method: (§1) 200M BV173 cells were lysed with 1% CHAPS, incubated for 1h in the cold room and spun down at 20,000 g for 50 min.

[11] = target: T9, … / HLA-A*02:01 complex (human); experiment: as above
T9 construct: whole, on cells; On pulsed T2 cells; also pulled down from BV173 lysate (HLA-A*02)
Method: as §1

[12] = target: T5, NC1 peptide … / HLA-A*02:01 complex; experiment: as above
Method: as §1

[13] = target: T10, … / HLA-A*02:01 complex (human); experiment: as above; remark: listed apart in the source
T10 construct: whole, on cells; On pulsed T2 cells; also pulled down from BV173 lysate (HLA-A*02)
Method: as §1

Binder	binding result [2]	binding result [3]	binding result [4]	binding result [5]	binding result [6]	other results
B1	–	–	–	–	–	binding result [1]: binds
B2	no binding	no binding	no binding	no binding	binds	–
B3	–	–	–	–	–	binding result [7]: binds
B4	–	–	–	–	binds	–
B5	no binding	no binding	no binding	no binding	binds	–
B6	no binding	no binding	no binding	no binding	binds	–
B7	no binding	no binding	no binding	no binding	binds	–
B8	no binding	no binding	no binding	no binding	binds	–
B9	–	–	–	–	–	binding result [8]: no binding; binding result [9]: no binding; fold lower MS signal intensity than … [10]: ≥ 3 fold; fold lower MS signal intensity than … [11]: ≥ 3 fold; fold lower MS signal intensity than … [12]: 3 fold; fold lower MS signal intensity than … [13]: ≥ 3 fold
B10	no binding	no binding	no binding	no binding	binds	–
